Consider one molecule from patent publication US7067277B1, “Chimeric G proteins and uses thereof” (H. Lundbeck A/S, priority 1999, dated 2006).

Assay [1] deals with h 5HT4 (Homo sapiens, UniProt Q13639). Put plainly: Calcium mobilization (FLIPR, Fluo-3) in transfected COS-7 cells. The note with it: h 5HT4 + chimera in COS-7; agonist 5HT, max 100 μM. Format: cell-based. On the procedure: (§1) COS-7 cells were cultured in 225 cm^2 flasks in Dulbecco's Modified Eagle Medium (DMEM) with supplements (10% bovine calf serum, 4 mM glutamine, 100 units/ml penicillin and 100 μg/ml streptomycin) at 37° C., 5% CO2. Stock plates of COS-7 cells were trypsinized and split 1:6 every 3–4 days.
h 5HT4, sequence (Q13639 whole entry): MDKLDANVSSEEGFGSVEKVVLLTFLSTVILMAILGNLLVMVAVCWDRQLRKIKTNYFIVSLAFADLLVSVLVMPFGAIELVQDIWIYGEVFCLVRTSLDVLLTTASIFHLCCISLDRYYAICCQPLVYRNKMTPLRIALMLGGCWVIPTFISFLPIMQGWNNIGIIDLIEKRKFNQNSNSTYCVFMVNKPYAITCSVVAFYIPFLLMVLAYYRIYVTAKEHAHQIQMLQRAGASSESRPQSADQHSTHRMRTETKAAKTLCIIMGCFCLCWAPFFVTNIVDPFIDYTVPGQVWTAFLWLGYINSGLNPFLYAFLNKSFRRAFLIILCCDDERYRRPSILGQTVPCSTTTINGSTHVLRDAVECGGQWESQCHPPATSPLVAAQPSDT
(§2) GPCR and chimeric G protein cDNAs were transiently transfected into COS-7 cells in 150 cm^2 flasks by the DEAE-dextran method (Cullen, 1987), using a total of 20 μg of DNA/˜7×10^6 cells. For evaluating the function of a single chimeric G protein, the standard cDNA transfection ratio was 1:1 (10 μg GPCR cDNA and 10 μg chimeric G protein cDNA). For evaluating the function of a mixture of chimeric G proteins, the standard cDNA transfection ratio was 8:1:1 (16 μg GPCR cDNA, 2 μg Gαq/z cDNA, 2 μg Gαq/s cDNA).
(§3) Twenty four hours after transient transfection, COS-7 cells were seeded into 96-well black wall microtiter plates coated with poly-D-lysine for assay the following day. Just prior to assay, culture medium was aspirated and cells were dye-loaded with 4 μM Fluo-3/0.01% pluronic acid in assay buffer composed of Hank's Balanced Salt Solution (138 mM NaCl, 5 mM KCl, 1.3 mM CaCl2, 0.5 mM MgCl2, 0.4 mM MgSO4, 0.3 mM KH2PO4, 0.3 mM Na2HPO4, 5.6 mM glucose) plus 20 mM HEPES (pH 7.4), 0.1% BSA and 2.5 mM probenicid (100 μl/well) for 1 hour in 5% CO2 at 37° C. After excess dye was discarded, cells were washed in assay buffer and layered with a final volume equal to 100 μl/well. Basal fluorescence was monitored in a fluorometric imaging plate reader (FLIPR™, Molecular Devices) with an excitation wavelength of 488 nm and an emission range of 500 to 560 nm. Laser excitation energy was adjusted so that basal fluorescence readings were approximately 10,000 relative fluorescent units. Cells were stimulated with agonists diluted in assay buffer (50 μl), and relative fluorescent units were measured at defined intervals (exposure=0.4 sec) over a 3 min period at room temperature. Maximum change in fluorescence was calculated for each well. Concentration-response curves derived from the maximum change in fluorescence were analyzed by nonlinear regression (Hill equation).

In assay [2] the target is h 5HT6 (Homo sapiens, UniProt P50406). Described as above. Format: cell-based. The note with it: h 5HT6 + chimera in COS-7; agonist 5HT, max 100 μM. The method, then:
as §1, §2, §3

For assay [3], the target named is h 5HT7 (Homo sapiens, UniProt P34969). The assay is described as above. Format: cell-based. The note with it: h 5HT7 + chimera in COS-7; agonist 5HT, max 100 μM. The method, then:
as §1, §2, §3

Assay [4] addresses h D5 (Homo sapiens, UniProt P21918). The description is as above. The note with it: h D5 + chimera in COS-7; agonist DA, max 100 μM. Format: cell-based. The method, then: as §1, §2, §3
The target of assay [5] is h GLP-1 (Homo sapiens, UniProt P43220). The assay is described as above. Format: cell-based. The note with it: h GLP-1 + chimera in COS-7; agonist GLP-1, max 10 μM. The method, then:
as §1, §2, §3

Assay [6] deals with h β2 adr (Homo sapiens, UniProt P07550). Described as above. Format: cell-based. The note with it: h β2 adr + chimera in COS-7; agonist NE, max 100 μM. On the procedure:
as §1, §2, §3

Assay [7] concerns the target T1, h D1 (Homo sapiens, UniProt P21728).
T1 construct: expressed in transfected cells; host or cells: COS-7
The description is as above. Format: cell-based. The note with it: h D1 + chimera in COS-7; agonist DA, max 100 μM. The method, then: as §1
For evaluating the function of a single chimeric G protein, the standard cDNA transfection ratio was 1:1 (10 μg GPCR cDNA and 10 μg chimeric G protein cDNA). For evaluating the function of a mixture of chimeric G proteins, the standard cDNA transfection ratio was 8:1:1 (16 μg GPCR cDNA, 2 μg Gαq/z cDNA, 2 μg Gαq/s cDNA).
as §3, with “Just prior to assay, culture medium was aspirated and cells were dye-loaded with 4 μM Fluo-3/0.01% pluronic acid in assay buffer composed of Hank's Balanced Salt Solution (138 mM NaCl, 5 mM KCl, 1.3 mM CaCl2, 0.5 mM MgCl2, 0.4 mM MgSO4, 0.3 mM KH2PO4, 0.3 mM Na2HPO4, 5.6 mM glucose) plus 20 mM HEPES (pH 7.4), 0.1% BSA and 2.5 mM probenicid (100 μl/well) for 1 hour in 5% CO2 at 37° C.” left out

Assay [8] deals with panel of 7 Gαs-coupling receptors. Put plainly: Detection rate in COS-7 calcium mobilization over Gαs-coupling GPCR. Format: cell-based, human. The note with it: COS-7, stimulated with appropriate agonists. The method, then:
as §1
GPCR and chimeric G protein cDNAs were transiently transfected into COS-7 cells in 150 cm^2 flasks by the DEAE-dextran method (Cullen, 1987), using a total of 20 μg of DNA/˜7×10^6 cells. For evaluating the function of a single chimeric G protein, the standard cDNA transfection ratio was 1:1 (10 μg GPCR cDNA and 10 μg chimeric G protein cDNA). […]
Twenty four hours after transient transfection, COS-7 cells were seeded into 96-well black wall microtiter plates coated with poly-D-lysine for assay the following day. […] Basal fluorescence was monitored in a fluorometric imaging plate reader (FLIPR™, Molecular Devices) with an excitation wavelength of 488 nm and an emission range of 500 to 560 nm. Laser excitation energy was adjusted so that basal fluorescence readings were approximately 10,000 relative fluorescent units. Cells were stimulated with agonists diluted in assay buffer (50 μl), and relative fluorescent units were measured at defined intervals (exposure=0.4 sec) over a 3 min period at room temperature. Maximum change in fluorescence was calculated for each well. […]

T1 sequence (P21728 whole entry): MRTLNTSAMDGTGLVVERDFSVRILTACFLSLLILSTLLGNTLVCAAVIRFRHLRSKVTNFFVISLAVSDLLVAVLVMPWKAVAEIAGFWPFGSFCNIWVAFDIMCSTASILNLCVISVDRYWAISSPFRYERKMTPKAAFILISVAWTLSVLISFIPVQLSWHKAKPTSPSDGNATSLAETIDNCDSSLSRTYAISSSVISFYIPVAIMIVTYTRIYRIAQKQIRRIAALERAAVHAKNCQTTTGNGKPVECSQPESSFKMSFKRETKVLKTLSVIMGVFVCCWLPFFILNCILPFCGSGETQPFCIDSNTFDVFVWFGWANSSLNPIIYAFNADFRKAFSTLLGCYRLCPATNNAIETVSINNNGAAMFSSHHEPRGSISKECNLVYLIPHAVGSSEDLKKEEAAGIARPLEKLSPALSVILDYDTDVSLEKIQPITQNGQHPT
h 5HT6, sequence (P50406 whole entry): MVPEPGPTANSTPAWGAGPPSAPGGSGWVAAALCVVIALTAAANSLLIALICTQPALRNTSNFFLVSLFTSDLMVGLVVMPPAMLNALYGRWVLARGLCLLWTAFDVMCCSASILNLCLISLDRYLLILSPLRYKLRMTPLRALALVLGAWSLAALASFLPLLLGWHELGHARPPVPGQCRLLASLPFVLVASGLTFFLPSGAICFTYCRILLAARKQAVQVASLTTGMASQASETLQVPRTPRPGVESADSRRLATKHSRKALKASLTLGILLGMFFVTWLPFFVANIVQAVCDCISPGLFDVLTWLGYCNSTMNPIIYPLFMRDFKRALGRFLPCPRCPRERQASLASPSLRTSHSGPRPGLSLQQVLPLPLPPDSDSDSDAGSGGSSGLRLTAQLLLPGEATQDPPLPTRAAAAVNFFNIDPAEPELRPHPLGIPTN
h D5, sequence (P21918 whole entry): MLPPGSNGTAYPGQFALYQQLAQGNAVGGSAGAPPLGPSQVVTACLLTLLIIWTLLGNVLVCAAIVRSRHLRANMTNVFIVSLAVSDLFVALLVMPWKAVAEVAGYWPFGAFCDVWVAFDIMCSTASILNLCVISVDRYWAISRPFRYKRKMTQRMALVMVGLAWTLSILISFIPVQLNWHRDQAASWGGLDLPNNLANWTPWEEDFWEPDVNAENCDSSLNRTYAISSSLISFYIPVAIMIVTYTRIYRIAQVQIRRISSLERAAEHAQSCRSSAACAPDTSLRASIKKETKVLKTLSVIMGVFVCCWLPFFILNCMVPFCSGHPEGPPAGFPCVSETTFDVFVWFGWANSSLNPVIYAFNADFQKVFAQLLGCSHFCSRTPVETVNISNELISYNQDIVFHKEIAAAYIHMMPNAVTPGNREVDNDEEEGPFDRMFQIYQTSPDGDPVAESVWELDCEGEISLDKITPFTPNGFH
h 5HT7, sequence (P34969 whole entry): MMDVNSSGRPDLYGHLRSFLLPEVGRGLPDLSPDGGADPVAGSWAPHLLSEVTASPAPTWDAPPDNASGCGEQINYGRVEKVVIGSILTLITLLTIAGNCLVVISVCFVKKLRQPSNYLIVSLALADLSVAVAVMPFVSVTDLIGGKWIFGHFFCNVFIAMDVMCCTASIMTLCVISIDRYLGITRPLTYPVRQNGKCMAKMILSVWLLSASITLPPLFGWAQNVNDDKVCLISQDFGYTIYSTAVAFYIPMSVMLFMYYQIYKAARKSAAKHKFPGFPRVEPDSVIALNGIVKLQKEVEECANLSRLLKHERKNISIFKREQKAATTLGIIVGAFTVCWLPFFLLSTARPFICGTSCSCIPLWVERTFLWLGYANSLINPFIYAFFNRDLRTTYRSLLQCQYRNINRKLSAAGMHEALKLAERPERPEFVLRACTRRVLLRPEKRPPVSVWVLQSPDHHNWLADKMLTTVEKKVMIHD
h GLP-1, sequence (P43220 24-463): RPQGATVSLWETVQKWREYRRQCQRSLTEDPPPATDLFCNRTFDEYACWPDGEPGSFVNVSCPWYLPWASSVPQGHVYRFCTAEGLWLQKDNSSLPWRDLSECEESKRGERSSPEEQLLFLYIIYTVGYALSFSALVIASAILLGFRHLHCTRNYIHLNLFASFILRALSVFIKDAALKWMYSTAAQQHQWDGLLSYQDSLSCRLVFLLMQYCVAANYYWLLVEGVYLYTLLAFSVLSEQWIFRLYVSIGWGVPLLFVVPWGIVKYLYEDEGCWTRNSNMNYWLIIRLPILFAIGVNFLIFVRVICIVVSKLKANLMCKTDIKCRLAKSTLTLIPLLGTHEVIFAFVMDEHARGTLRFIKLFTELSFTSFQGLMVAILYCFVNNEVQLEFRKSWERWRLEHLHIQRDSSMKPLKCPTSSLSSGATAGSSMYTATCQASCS

B1: cGαq/s9: C. elegans Gαq backbone with 9 C-terminal amino acids of Gαs (SEQ ID NO: 3) (protein)
chain: MACCLSEEAREQKRINQEIEKQLQRDKRNARRELKLLLLGTGESGKSTFIKQMRIIHGQGYSEEDKRAHIRLVYQNVFMAIQSMIRAMDTLDIKFGNESEELQEKAAVVREVDFESVTSFEEPYVSYIKELWEDSGIQECYDRRREYQLTDSAKYYLSDLRRLAVPDYLPTEQDILRVRVPTTGIIEYPFDLEQIIFRMVDVGGQRSERRKWIHCFENVTSIMFLVALSEYDQVLVECDNENRMEESKALFRTIITYPWFTNSSVILFLNKKDLLEEKILYSHLADYFPEYDGPPRDPIAAREFILKMFVDLNPDADKIIYSHFTCATDTENIRFVFAAVKDTILQMHLRQYELL
modifications: C. elegans
Turning to B1, the “MAXIMAL SIGNAL (FLUORESCENCE UNITS)” value turned out to be 1701 fluorescence units in assay [1]; 1639 fluorescence units in assay [2]; 387 fluorescence units in assay [3]; 1870 fluorescence units in assay [4]; 2461 fluorescence units in assay [5]; 3106 fluorescence units in assay [6]. Besides, the “MAXIMAL SIGNAL (FLUORESCENCE UNITS)” value in assay [7] is recorded as 8692 fluorescence units. Moreover, the “Gαs-coupling receptors generating positive responses (>500 fluorescence units) / receptors tested” value in assay [8] was 6/7. Further, in assay [8], the “percent of Gαs-coupling receptors generating positive responses (>500 fluorescence units)” value is listed as 81%.
